Laboratory results taken from patent US9657062B2, “Ghrelin analogues” (Zealand Pharma A/S, priority 2012, dated 2017).
[ ]: non-standard residue; d: D form. The star is where a group is joined. Palmitoyl = CCCCCCCCCCCCCCCC(=O)*; Aib = CC(C)(N)C(=O)O; Octyl = CCCCCCCC*

B1: H-Aib-S-S(O-octyl)-FLSPEHQRVQQRKESKKPPAKLQPR-OH (peptide)
peptide: H-[Aib]SS(Octyl)FLSPEHQRVQQRKESKKPPAKLQPR-OH
SMILES: CCCCCCCCOC[C@H](NC(=O)[C@H](CO)NC(=O)C(C)(C)N)C(=O)N[C@@H](Cc1ccccc1)C(=O)N[C@@H](CC(C)C)C(=O)N[C@@H](CO)C(=O)N1CCC[C@H]1C(=O)N[C@@H](CCC(=O)O)C(=O)N[C@@H](Cc1c[nH]cn1)C(=O)N[C@@H](CCC(N)=O)C(=O)N[C@@H](CCCNC(=N)N)C(=O)N[C@H](C(=O)N[C@@H](CCC(N)=O)C(=O)N[C@@H](CCC(N)=O)C(=O)N[C@@H](CCCNC(=N)N)C(=O)N[C@@H](CCCCN)C(=O)N[C@@H](CCC(=O)O)C(=O)N[C@@H](CO)C(=O)N[C@@H](CCCCN)C(=O)N[C@@H](CCCCN)C(=O)N1CCC[C@H]1C(=O)N1CCC[C@H]1C(=O)N[C@@H](C)C(=O)N[C@@H](CCCCN)C(=O)N[C@@H](CC(C)C)C(=O)N[C@@H](CCC(N)=O)C(=O)N1CCC[C@H]1C(=O)N[C@@H](CCCNC(=N)N)C(=O)O)C(C)C
B2: H-Aib-S-S(O-octyl)-FLSPEHQRVQQRKES-K(hexadecanoyl)-KPPAKLQPR-OH (peptide)
peptide: H-[Aib]SS(Octyl)FLSPEHQRVQQRKESK(Palmitoyl)KPPAKLQPR-OH
SMILES: CCCCCCCCCCCCCCCC(=O)NCCCC[C@H](NC(=O)[C@H](CO)NC(=O)[C@H](CCC(=O)O)NC(=O)[C@H](CCCCN)NC(=O)[C@H](CCCNC(=N)N)NC(=O)[C@H](CCC(N)=O)NC(=O)[C@H](CCC(N)=O)NC(=O)[C@@H](NC(=O)[C@H](CCCNC(=N)N)NC(=O)[C@H](CCC(N)=O)NC(=O)[C@H](Cc1c[nH]cn1)NC(=O)[C@H](CCC(=O)O)NC(=O)[C@@H]1CCCN1C(=O)[C@H](CO)NC(=O)[C@H](CC(C)C)NC(=O)[C@H](Cc1ccccc1)NC(=O)[C@H](COCCCCCCCC)NC(=O)[C@H](CO)NC(=O)C(C)(C)N)C(C)C)C(=O)N[C@@H](CCCCN)C(=O)N1CCC[C@H]1C(=O)N1CCC[C@H]1C(=O)N[C@@H](C)C(=O)N[C@@H](CCCCN)C(=O)N[C@@H](CC(C)C)C(=O)N[C@@H](CCC(N)=O)C(=O)N1CCC[C@H]1C(=O)N[C@@H](CCCNC(=N)N)C(=O)O
B3: H-PS-S(O-octyl)-FLSPEHQRVQQRKES-K(hexadecanoyl)-KPPAKLQPR-OH (peptide)
peptide: H-PSS(Octyl)FLSPEHQRVQQRKESK(Palmitoyl)KPPAKLQPR-OH
SMILES: CCCCCCCCCCCCCCCC(=O)NCCCC[C@H](NC(=O)[C@H](CO)NC(=O)[C@H](CCC(=O)O)NC(=O)[C@H](CCCCN)NC(=O)[C@H](CCCNC(=N)N)NC(=O)[C@H](CCC(N)=O)NC(=O)[C@H](CCC(N)=O)NC(=O)[C@@H](NC(=O)[C@H](CCCNC(=N)N)NC(=O)[C@H](CCC(N)=O)NC(=O)[C@H](Cc1c[nH]cn1)NC(=O)[C@H](CCC(=O)O)NC(=O)[C@@H]1CCCN1C(=O)[C@H](CO)NC(=O)[C@H](CC(C)C)NC(=O)[C@H](Cc1ccccc1)NC(=O)[C@H](COCCCCCCCC)NC(=O)[C@H](CO)NC(=O)[C@@H]1CCCN1)C(C)C)C(=O)N[C@@H](CCCCN)C(=O)N1CCC[C@H]1C(=O)N1CCC[C@H]1C(=O)N[C@@H](C)C(=O)N[C@@H](CCCCN)C(=O)N[C@@H](CC(C)C)C(=O)N[C@@H](CCC(N)=O)C(=O)N1CCC[C@H]1C(=O)N[C@@H](CCCNC(=N)N)C(=O)O
B4: H-[DPro]-S-S(O-octyl)-FLSPEHQRVQQRKES-K(hexadecanoyl)-KPPAKLQPR-OH (peptide)
peptide: XSSFLSPEHQRVQQRKESKKPPAKLQPR
modifications: DPro at position 1; Ser(O-octyl) at position 3; K(hexadecanoyl) at position 19; C-terminal -OH

target: human growth hormone secretagogue receptor type 1a (human, UniProt Q92847 1-366); experiment: cell-based or functional assay
Sequence (Q92847 whole entry): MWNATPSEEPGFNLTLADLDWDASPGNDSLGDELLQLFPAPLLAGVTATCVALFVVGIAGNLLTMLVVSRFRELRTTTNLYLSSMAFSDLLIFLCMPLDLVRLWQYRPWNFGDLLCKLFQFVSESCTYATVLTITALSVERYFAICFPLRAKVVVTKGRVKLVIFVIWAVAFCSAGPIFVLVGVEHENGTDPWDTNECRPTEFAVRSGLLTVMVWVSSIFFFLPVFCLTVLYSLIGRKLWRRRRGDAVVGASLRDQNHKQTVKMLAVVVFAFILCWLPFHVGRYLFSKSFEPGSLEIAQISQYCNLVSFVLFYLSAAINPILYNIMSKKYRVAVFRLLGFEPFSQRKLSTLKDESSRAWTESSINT

Row | Binder | EC50 (nM); Ca2+ induction in HEK293 cells stably expressing the human ghrelin receptor
1 | B1 | 0.46 nM
2 | B2 | 2.9 nM
3 | XSSFLSPEHQRVQQRKESKKPPAKLQPR (DPro at position 1; Ser(O-octyl) at position 3; C-terminal -OH) [H-[DPro]-S-S(O-octyl)-FLSPEHQRVQQRKESKKPPAKLQPR-OH] | 0.77 nM
4 | B3 | 2.88 nM
5 | H-PSS(Octyl)FLSPEHQRVQQRKESKKPPAKLQPR-OH [H-PS-S(O-octyl)-FLSPEHQRVQQRKESKKPPAKLQPR-OH] | 0.579 nM
6 | B4 | 4.63 nM
7 | PSSFLSPEHQRVQQRKESKKPPAKLQPR (Dap(N-octanoyl) at position 3; C-terminal amide (-NH2)) [H-PS-Dap(N-octanoyl)-FLSPEHQRVQQRKESKKPPAKLQPR-NH2] | 0.193 nM
